PMC10138647

Target: GST-cytPERK (cytosolic domain of PERK expressed as a GST fusion protein) (mouse)
Assay: cross-linking; GST-cytPERK (1.3 µM) in solution, phosphate buffer pH 7.4, 2 mM MgCl2, 70 mM KCl, 1 mM DTT; 20 min at 27 °C with UDCA (50, 200, 1000 µM) or without, then 0.4 mM DSS for 30 min at 27 °C; quenched with Tris-HCl; 7% SDS-PAGE, blot with anti-PERK antibody; dimer relative to monomer by densitometry

stoichiometry N: 2
Substance: GST-cytPERK (cytosolic domain of PERK expressed as a GST fusion protein) (domain or fragment)
